Measured values published in the nanobody polyreactivity screen of Harvey et al. (2022).

assay: yeast display, Sf9 membrane polyspecificity reagent, FACS + sequencing; frameworks hold sequencing errors
Outline: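 Nanobodies came from a synthetic yeast display library in Saccharomyces cerevisiae BJ5465, induced with galactose for 36–48 hours and stained for 1 hour at 4 °C with 10% biotinylated, detergent-solubilized Sf9 membrane reagent. Cells were enriched on streptavidin microbeads and then FACS-sorted, with low and high (top ~1%) gates set on anti-HA fluorescence for expression and streptavidin fluorescence for reagent binding. Each polyreactivity label reflects the gate a clone came from. Genes were amplified by colony PCR, sequenced by MiSeq 2 × 250 and filtered by CDR length.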

Row | Sequence | polyreactivity (PSR sort gate)
1 | QVQLVESGGGLVQAGGSLRLSCAASGFIFGGYAMGWYRQAPGKERELVAAISRSGGSTYYADSVKGRFTISRDNAKNTVYLQMNSLKPEDTAVYYCAAKFWPEDHRMDYWGQGTQVTVSS | low polyreactivity
2 | QVQLVESGGGLVQAGGSLRLSCAASGFIFGGYAMGWYRQAPGKERELVAAISRSGGSTYYADSVKGRFTISRDNGKNTLNLKMNSLKREDTAVYYCNAVPRRQGFNYWGQGTQVTVSS | high polyreactivity
3 | QVQLVESGGGLVQAGGSLRLSCAASGFIFGKYAMGWYRQAHGKERELVAAITSDGRTYYADSVKGRFTISRDNAKNTVYLQMNSLKPEDTAVYYCAATRYGHRYYYRPYEYWGQGTQVTVSS | high polyreactivity
4 | QVQLVESGGGLVQAGGSLRLSCAASGFIFGKYAMGWYRQAPGKEREFVAAITGNGGSTYYADSVKGRFTISRDNAKNTVYLQMNSLKPEDTAVYYCNADRGYRRRSGMDYWGQGTQVTVSS | low polyreactivity
5 | QVQLVESGGGLVQAGGSLRLSCAASGFIFGKYAMGWYRQAPGKEREVVAAITSGGSTYYADSVKGRFTISRDNAKNTVYLQMNSLKPEDTAVYYCAVPFTFWWSSYRYDYWGQGTQVTVSS | high polyreactivity
6 | QVQLVESGGGLVQAGGSLRLSCAASGFIFGLYAMGWYRQAPGKERELVATISWDGGSTYYADSVKGRFTISRDNAKNTVYLQMNSLKPEDTAVYYCNARYIGGYGYWGQGTQVTVSS | low polyreactivity
7 | QVQLVESGGGLVQAGGSLRLSCAASGFIFGLYAMGWYRQAPGKERELVATISWDGGSTYYADSVKGRFTISRDYAKNTVYLQMNSLKPEDTAVYYCAATYLYRSPYVPMDYWGQGTQVTVSS | low polyreactivity
8 | QVQLVESGGGLVQAGGSLRLSCAASGFIFGNNDMGWYRQAPGKERELVAGITWSGSSTYYADSVKGRFTISRDNAKNTVYLQMNSLKPEDTAVYYCNRVFTWRYGYRYEYWGQGTQVTVSS | high polyreactivity
9 | QVQLVESGGGLVQAGGSLRLSCAASGFIFGNYAMGWYRQAPGKERELVATITRRGGRTYYADSVKGRFTISRDNAKNTVYLQMNSLKPEDSAVYYCNARPSRWAREGYWGQGTQVTVSS | high polyreactivity
10 | QVQLVESGGGLVQAGGSLRLSCAASGFIFGNYDMEWYRPAPGKERELVAAITNGGGNTYYADSVKGRITISRDNAKNTVYLQMNSLKPEDTAVSYCHPLRYYYWGQGTQVTVSS | high polyreactivity
11 | QVQLVESGGGLVQAGGSLRLSCAASGFIFGNYVMGWYRPAPGKERELVAAISESGSRTYYADSVKGRFTISRDNAKNTVYLQMNSLKPEDTAVYYCAAALFSYYGEYDYWGQGTQVTVSS | low polyreactivity
12 | QVQLVESGGGLVQAGGSLRLSCAASGFIFGQYAMGWYRQAPGKERELVAAISRSGGSTYYADSVKGRFTISRDNAKNTVYLQMNSLKPEDTAVYYCNRRDRGDSYRLDYWGQGTQVTVSS | high polyreactivity
13 | QVQLVESGGGLVQAGGSLRLSCAASGFIFGRNAMGWYRQAPGKERELVAAINWRGGSTYYADSVKGRCTISRDNAKNTVYLQMNSLKPEDTAVYYCAARGPYRYGYDYWGQGTQVTVSS | high polyreactivity
14 | QVQLVESGGGLVQAGGSLRLSCAASGFIFGRYAMGWYRQAPGKERELVAAISRGGGSTRYADSVKGRFTISRDNAKNTVYLQMKSLKPEDTAVYYCAAYRYWGRTSYSYDYWGQGTQVTVSS | high polyreactivity
15 | QVQLVESGGGLVQAGGSLRLSCAASGFIFGRYAMGWYRQAPGKERELVAAISSGDDTDYADSVKGRFTISRDNAKNTVYLQMNSLKPEDTAVSYCARSRFWSPVIYRRTIEFDSWGQGTQVTVSS | low polyreactivity
16 | QVQLVESGGGLVQAGGSLRLSCAASGFIFGRYAMGWYRQSPGKERELVAVISKRGDNTYYADSVKGRFTISRDNAKNTVYLQMNSLKPEDTAVYYCNVKRYGGRSDYWGQGTQVTVSS | high polyreactivity
17 | QVQLVESGGGLVQAGGSLRLSCAASGFIFGRYTMGWYRQAPGKERELVAAITYSGNTYYADSVKGRFTISRDKAKTTVYVQMNSLKPEDTALYYCNAYGANFRAFRNAYKYWGQGTQVTVSS | high polyreactivity
18 | QVQLVESGGGLVQAGGSLRLSCAASGFIFGSYALGWDRQAPGKEWELVAAINYDGGSTYYADSVKGRFTISRDHAKNTVYLQMNSLKPEDTAVYYCAADLYYTHMDYWGQGTQVTVSS | low polyreactivity
19 | QVQLVESGGGLVQAGGSLRLSCAASGFIFGSYAMGWYRQAPGKERELVAAISTGGGSTYYADSVKGRFTISRDNAKNTVYLQMNSLKPEDTAVYYCATDYRVTVWHPYQWYIYGYWGQGTQVTVSS | low polyreactivity
20 | QVQLVESGGGLVQAGGSLRLSCAASGFIFGSYTMGWYRQAPGKERELVAAISWSSGCSTYYADSVKGRFTISRDNAKNTVYLQMNSLKPEDTAVYYCAARHRGAGRNDFYYWGQGTQVTVSS | high polyreactivity
21 | QVQLVESGGGLVQAGGSLRLSCAASGFIFGTYAMGWYRQAPGNERELVAAISVGGGSTYYADSVKGRFTISRDNAKNTVYLQMNSLKPEDTAVYYCAAVQLYQKHQITYVAHEYWGQGTQVTVSS | low polyreactivity

Row | Sequence | polyreactivity (PSR sort gate)
22 | QVQLVESGGGLVQAGGSLRLSCAASGFIFGVNAMGWYRQAPGKEPELVAAINGGASTYYADSVKGRFTISRDNAKNTVYLQMNSLKPEDTAVYYCAAVFYDYRGRLYPNFGLYYYWGQGTQVTVSS | high polyreactivity
23 | QVQLVESGGGLVQAGGSLRLSCAASGFIFGVNAMVWYRQAPGKERELVAAITRNGGSTYYADSVKGRFTISRDNAKNTVYLQMKSLKPEDTAVYYCAKYVRRAPSTFDVDYWGQGTQVTVSS | high polyreactivity
24 | QVQLVESGGGLVQAGGSLRLSCAASGFIFGVYAMGWYRQAPGKERELVAAISRSGGSTYYADSVKGRFTISRDNAKNTVYLQMNSLKPEDTAVYYCATQVSWYGKGYYYWGQGTQVTVSS | high polyreactivity
25 | QVQLVESGGGLVQAGGSLRLSCAASGFIFGWNAMGWYREAPGKERELVAALTRTGSTYYADSVKGRFTISRDNAKNTVYLQMNSLKPEDTAVYYCAASYGSRSTRTEGYWGQGTQVTVSS | low polyreactivity
26 | QVQLVESGGGLVQAGGSLRLSCAASGFIFGYNAMGGYRLAPGKERELVAAISSYGGSPYYADSVKGRFTISRDNAKNTVYLQMNTLKPEDTAVYYWAARPVALRKYDYWGQGTQLTVSS | low polyreactivity
27 | QVQLVESGGGLVQAGGSLRLSCAASGFIFGYNAMGWYRQAAGKERELVAAISYSGGGTYYADSVKGRFTISRDNAKNTVYLQMNSLKPEDTAVYYCAARSWGRRSYDYWGQGTQVTVSS | high polyreactivity
28 | QVQLVESGGGLVQAGGSLRLSCAASGFIFGYNAMGWYRQAPGIERELVAAITASGGSTYYADSVKGRFTISLDNAKNTVYLQLNSLIPEDTAVYYCATVLRKNGERGNRLYYWGQGTQVTVSS | high polyreactivity
29 | QVQLVESGGGLVQAGGSLRLSCAASGFIFGYNAMGWYRQAPGKERELVASITINDGSTYYADSVKGRFTISRDNAKNTVYLQMNCLKPEDTAVYYCAAGGWYSLDILPYRYDYWGQGTQVTVSS | low polyreactivity
30 | QVQLVESGGGLVQAGGSLRLSCAASGFIFGYNGMGWYRQAPGKERELVAGITYSDGSTYYADSVKGRFTISRDNAKNTVYLQMNSLKPEDTAVYYCAVEVGYTDSPYSYDYWGQGTQVTVSS | low polyreactivity
31 | QVQLVESGGGLVQAGGSLRLSCAASGFIFGYYAMGWYRQAPGKERELVAAINRSGSTYYADSVKGPFTISRDNAKNTVYLQMNSLKPEDTAVYYCKLRHYVGLSKGDYWGQGTQVTVSS | high polyreactivity
32 | QVQLVESGGGLVQAGGSLRLSCAASGFIFGYYAMGWYRQAPGKERELVAAISWSGGSTYYADSVKGRFTISRDKAKNTVYLQMNSLKPEDTAVYYCATASPSTRYGRLGDYWGQGTQVTVSS | low polyreactivity
33 | QVQLVESGGGLVQAGGSLRLSCAASGFIFGYYAMGWYRQAPGKERELVAAISWSGGSTYYADSVKGRFTISRDNAKNTVYLQMNSLKPEDTAVYYCATASPSTRYGRLGDYWGQGTQVTVSS | low polyreactivity
34 | QVQLVESGGGLVQAGGSLRLSCAASGFIFGYYAMGWYRQAPGKERELVAAITGGGSTYYADSVKGRFTISRDNAKNTVYLQMNSLKPEDTAVYDCNADYGDGEYDYWGQGTQVTVSS | low polyreactivity
35 | QVQLVESGGGLVQAGGSLRLSCAASGFIFHDNAMGWYRQAPGKERELVAAIRSTGSTNYADSVKGRFTISRDNAKNTVYLQMNSLKPEDTAVYYCNAGKYQSDTPSLDPTEYPAFYYWGQGTQVTVSS | low polyreactivity
36 | QVQLVESGGGLVQAGGSLRLSCAASGFIFHLYGMGWYRQAPGKERELVAAISSGGRTYYADSVKGRFTISRDNAKNTVYLQMNSLKPEDTAVYYCAVYVAYLYSYYYWGQGTQVTVSS | low polyreactivity
37 | QVQLVESGGGLVQAGGSLRLSCAASGFIFHNYVMGWYRQAPGKERELVAVISGSGGSTYYADSVKGRFTISRDNAKNTVYLQMNSLKPEDTAVYYCAADNVYGYDYWGQGTQVTVSS | low polyreactivity
38 | QVQLVESGGGLVQAGGSLRLSCAASGFIFHRYAMGWYRQAPGKERELVAAISSSGGSTYYADSVKGRFTISRDNAKNTVYLQMNSLKPEDTAVYYCAAEEEEFIYDYWGQGTQVTVSS | high polyreactivity
39 | QVQLVESGGGLVQAGGSLRLSCAASGFIFHSYAMRWYRQAPGKERELVAAITHSGGRTYYADCVKGRFTISRDNAKNTVYLQMNSLKPEDTAVYYCAAVTRRHEYDYWGQGSQVTVSS | high polyreactivity
40 | QVQLVESGGGLVQAGGSLRLSCAASGFIFHTYAMGWYRQAPGKEREFVAAISGGTSSTYYADSVKGRFTISRDNAKNTVYLQMNSLKPEDTAVYYCAARSRRGGYPRYYYWGQGTQVTVSS | high polyreactivity
41 | QVQLVESGGGLVQAGGSLRLSCAASGFIFHWNAMGWYRQAPGKERELVAAITWRGTNTYYADSVKGRFTISRDNAKNTVYLQMNSLKPEDTAVYYCAGTRNPWPTSFDYWGQGTQVTVSS | low polyreactivity
